{
  "source": "the DeepSol protein solubility set",
  "data": [
    {"assay": "soluble on expression in E. coli; label from the status in PepcDB or PDB records", "values": [
      {"sequence": "MDEEDPINPCFQTISMGGGYVSGEIYRSDFEINDDARCIITTQSSAKAYKTVDGKTSEQHTNITLGKNSILEYISDNVIVYEDGKFAQFNNFKMDSSATLIYTECFGPGSPHGSAYQYEKMYLNTKIYYDDKLVLFDNLKFQPRKNDESAFGIMDGYHYCGTMIVINQQVIEDDVIKIRDLVKEKYPDMDMIFGVSRMDIPGLGLRVLANTYYHVEKINAVAHDYFRRKLFNKKPLILRKPLEHHHHHH", "soluble on expression in E. coli": "not soluble"},
      {"sequence": "DLKYILETKLEEERNHLEELLEKVEEDYEGINYDEVLEALKLFKDNYELPKSKIKRKIRIFLIKENILFLNPQKGTLKPQSYLVWNAIKRML", "soluble on expression in E. coli": "soluble"},
      {"sequence": "MDAYEIIQYIGDAKKQTLVKVTLKGQLKEVTFPETIKVFNNCKTGTLFGDWADVKPFLEANKEKIEDYVVENDARNSAIPFLDLKDINARIEPGALIREKVEIGDQAVIMMGAILNIGAVVGAGTMIDMGAVLGGRATVGKHCHIGAGTVLAGVIEPPSAAPVVIENEVVIGANAVVLEGVRVGEGAVVAAGAVVVEDVPAHTVVAGVPAKVIKQIDDKTKSKTEILEELRKL", "soluble on expression in E. coli": "soluble"},
      {"sequence": "MQEILIPLKEKNYKVFLGELPEIKLKQKALIISDSIVAGLHLPYLLERLKALEVRVCVIESGEKYKNFHSLERILNNAFEMQLNRHSLMIALGGGVISDMVGFASSIYFRGIDFINIPTTLLAQVDASVGGKTGINTPYGKNLIGSFHQPKAVYMDLAFLKTLEKREFQAGVAEIIKMAVCFDKNLVERLETKDLKDCLEEVIFQSVNIKAQVVVQDEKEQNIRAGLNYGHTFGHAIEKETDYERFLHGEAIAIGMRMANDLALSLGMLTLKEYERIENLLKKFDLIFHYKILDLQKFYERLFLDKKSENKTIKFILPKGVGAFEVASHIPKETIIKVLEKWH", "soluble on expression in E. coli": "soluble"},
      {"sequence": "EYRHLVLNQLRNMGGTRFFVSLNNHQIDVDPLPESERKTLVINQVREVLESELSGIPNIEVEFTQRDKLKVFNNELPIDELPLLWAHYSLSFGDLNPPILVMQVEVAQNEWFYLAAVLPAPYINLETNYFELRQ", "soluble on expression in E. coli": "not soluble"},
      {"sequence": "MTFEEKRKHLETTYPNKRTPESRAKSREILKLIADNLEMFPIASPESSSSKAKTDPMSRLEHGSEFNDLTVPRVEKLTPVSELYSIENTSLKFGTEDDFSDLSYSNTSPFQSVSTLYDQPSTPFSDDSDLEATPRTCVQ", "soluble on expression in E. coli": "not soluble"},
      {"sequence": "MLKHLLPLGTRDEFGRRARTKQHLIAVIQAHFKQRGLAPIATPLLENEAVFDPYQMGNYQLYRLFGNDGRTLVLRPDMTLPVARFISATNVPLPQKFGYVGDIFRVSRQLSGSYNQITQAGVELVGYASLKAEFECLTIANQLSSELIADAVEIELGDAQFAQRVVASLTGDEGEQQAILTALFDKQVPRYTKLIAKYRAQPLYDFLKAWPRLFGRPECIFKELAAAPLPETVQPSLKRLQTVVAWMQQTMPEQVISVDLSSQAPQKYYTGLTFRGYSQAGAGYLFSGGRYDKLLTNFQAEAEPAVGMGLNVDLLTTLATDQQTAYAEQLIYFEPEQWSQAEAYLAKQPHAILSLADDLAGARIEAQRLNAQLIDLTGGMTND", "soluble on expression in E. coli": "not soluble"},
      {"sequence": "MAHHHHHHMNKMKSTKIENPKYKLMKLIGKGTFGKVYSAIDMSTQEAVAIKRSPKWRNKVSREVDLLKKMNGSTNIVKIKSVFYTTTKKGYRIQNIVFKYMTYSLGRYIRMKKQEKRENNQICIGIKDLHKNDFAHRDLKPDNILIDLDSSNIKIEICDLGSAKKVQRNIISIPYICSRWYRAPELLCGSMFYTTEVDLWSLGCIIFELINLCPLFPGKFKKDEYSEECSQIINLIEVIGSPQMSFFENIKDHTSKKNTLLIKELCELNIKPLCWDEILGNILEIENPNERLNIDAVLSNPYFSTLNK", "soluble on expression in E. coli": "not soluble"},
      {"sequence": "MMKDLNLSNSLFKGYNDKHGLMICGYEWGWSKADEAAYVAGEYKLPENKIDHTFANKSLYFGEQAKKWRYDNTIKNWFEMWGHPLDENGLGGAFEKSLVQTNWAATQGNTIDNPDKFTQPEHIDNFLYHIEKLRPKVILFMGSRLADFLNNQNVLPRFEQLVGKQTKPLETVQKEFDGTRFNVKFQSFEDCEVVCFPHPSASRGLSYDYIALFAPEMNRILSDFKTTRGFK", "soluble on expression in E. coli": "not soluble"},
      {"sequence": "MELPILPTSVIGSYPKPRWLLRMYRLRDLGKIPEEDFKEAVKDASVSVLREHERAGVDIPWDGEMWRTEMTEHFTAKIGGFKFYGPVRVWGNAYFNKAAAVDKLEYKEPLVLEEFLWVKKNTTREVVKIPITGPYTIAEWSFNEYYPDKESFIMDLAKIINKELKMLENHGALYIQLDEPAMLNHPDEVPLAVEAINKAVKGIKIKVGLHVCYSNYYLLADYFDEIRVTQFALEFANRQFRDMDFLKKLSNKELGFGVVDVHNPRIESVEEIVKAIKKVFEYVEPELLYINPDCGMKLLDRNIAYNKLVNMVKATELVRKELEREGKKTTEFRTLKDILEHHHHHH", "soluble on expression in E. coli": "not soluble"},
      {"sequence": "MTAYAKWSSCFQNGIDSWNNLTTTAEFLNHAGNISSNCKIILDLNIVKLSDSKFYISPQVQKSLTHATVGISSNFEAESQLKKVLELSSHHFLICQLFQRLPIINIFGATPKLSERERELFQKIGNYYPVAIGTKSGLVNVTMKPQYNYSLNDSAVPSSKSEFQLDLIYFLKDVLKQDFYYSIWFNIFFDELPNMLHRNRNFDENRITLCQININIDNDQKTNMKQFFKSLISDKRYVIIFEVVNDYGVLFLINFDNTTCRKKLGIVRNV", "soluble on expression in E. coli": "not soluble"},
      {"sequence": "MNDQRKKARNTPFNMLKRERNRVSTVQQLTKRFSLGMLQGRGPLKLFMALVAFLRFLTIPPTAGILKRWGTIKKSKAINVLRGFRKEIGRMLNILNRRRR", "soluble on expression in E. coli": "soluble"},
      {"sequence": "MSNSAKLIDVITKVALPIGIIASGIQYSMYDVKGGSRGVIFDRINGVKQQVVGEGTHFLVPWLQKAIIYDVRTKPKSIATNTGTKDLQMVSLTLRVLHRPEVLQLPAIYQNLGLDYDERVLPSIGNEVLKSIVAQFDAAELITQREIISQKIRKELSTRANEFGIKLEDVSITHMTFGPEFTKAVEQKQIAQQDAERAKFLVEKAEQERQASVIRAEGEAESAEFISKALAKVGDGLLLIRRLEASKDIAQTLANSSNVVYLPSQHSGGGNSESSGSPNSLLLNIGR", "soluble on expression in E. coli": "not soluble"},
      {"sequence": "KESILAVLLYLFEYYFSENADLVRDRDSLQNSLIQVGFSPAEINKAFEWLDALAANRPTLTNPRVNGPVRVLHGPELDKLDVESRGFLLFLEQQGILNTEQRELVLDRAMALDQEELDLDDMKWVVLMVLFNQPGAEAAYAWMETQMFGNEPEQLH", "soluble on expression in E. coli": "not soluble"},
      {"sequence": "SASHIVGYPRMGPKRELKFALESFWDGKSSAEDLEKVATDLRASIWKQMADAGIKYIPSNTFSYYDQVLDTTAMLGAVPGRYSWTGGEIGFSTYFSMARGNATVPAMEMTKWFDTNYHFIVPELGPNTKFSYSSHKAVNEYKEAKALGVDTVPVLVGPVSYLLLSKPAKGVEKSFALLSLLSSILPVYKEVIAELKAAGATWIQFDEPTLVLDLDSHQLAAFSAAYTELESALSGLNVLIETYFADIPAESYKTLTSLNSVTAYGFDLIRGSKTLDLVKSAGFPSGKYLFAGVVDGRNIWADDLAASLTTLESLEAIVGKDKLVVSTSCSLMHTAVDLVNETKLDSEIKSWLAFAAQKVVEVNALAKALAGQKDEAYFAANTAAQASRRSSPRVTNEEVQKAAAALRGSDHRRATNVSARLDAQQKKLNLPVLPTTTIGSFPQTVELRRVRREYKAKKISEDEYVSAIKEEISKVVKIQEELDIDVLVHGEPERNDMVEYFGEQLSGFAFTANGWVQSYGSRCVKPPIIYGDVSRPNAMTVFWSKMAQSMTSRPMKGMLTGPVTILNWSFVRNDQPRFETCYQIALAIKKEVEDLEAGGIQVIQIDEAALREGLPLRKAEHAFYLDWAVHSFRITNCGVQDTTQIHTHMCYSNFNDIIHSIINMDADVITIENSRSDEKLLSVFREGVKYGAGIGPGVYDIHSPRIPSTEEIADRINKMLAVLDTNILWVNPDCGLKTRKYTEVKPALTNMVLAAKLIRTQLASAK", "soluble on expression in E. coli": "soluble"},
      {"sequence": "MSLKIAEMDSNSAVMAAQNEVIRGEIKDRDGNVLAKSTKSGDLTQKREYPYGEIYSHPIGYASGIYGNAGLEGAYSKELTTYENVSLKAFLKSFNLKKDFKERNESDKKVGNSIVTTLDTDLQKAAYAALGANRGAVVALDPKTGAVLASVSKPGFNPNNMKETYEIANNPNGNPKDAILVDRALNGQYPPGSTFKVVTLTSALENLPGVTERTFNDTGSINVGTKDLPNENGNAYGNISLRKALSVSSNVIFGGILGEELGNKKLRETAEKYGFNKDLYLGNLKAYSGSFPDRKTVDKGLIAYDAIGQGEVLSSPIEMAMVAATVANNGVRMEPYIVSKVVDKDGDTVKEFSSTKKDTVMSKEQAQIINEYMQGVAKDRINDNWGYFKGMNVAAKTGTAQVPDGNSHAWLIAFAPADDPKIAVATIVENGGSGSKVAAPVTARVMQAYFNEGHHHHHH", "soluble on expression in E. coli": "soluble"},
      {"sequence": "PNLTEISKKITESNAVVLAVKEVETLLASIDELATKAIGKKIGNNGLEANQSKNTSLLSGAYAISDLIAEKLNVLKNEELKEKIDTAKQCSTEFTNKLKSEHAVLGLDNLTDDNAQRAILKKHANKDKGAAELEKLFKAVENLSKAAQDTLKNAVKELTSPIVA", "soluble on expression in E. coli": "soluble"},
      {"sequence": "MELQKALKEVREQKIAPVYLLIGTELYLTELFKTTLMKELLTEEDDQFNFFSFDMEETPLSAAIAEAETIPFFGDYRLVFVENPYFLTAERKTNGVEHDVNLLLNYLESPSPTTVLVFMASYEKLDERKKITKALKKNATVVDVNPMDEKAIRQYISQTIESEGYTIRSDAFDLLLQLTDLNLSKIMGELQKLYLYALETKTITRGAVQELVPKSLEHNVFDLTNEVLSGNSEKAVQLYEDLLLQGEETIKLNAILLNQIRLFLQTKILAKMGYQQANIADTLKVHPYRVKLALQQVRRFELSRLERLYDELVENDYRMKTGQMDKELLFQLFILKLTAQAK", "soluble on expression in E. coli": "not soluble"},
      {"sequence": "MSPNHVDHLVLPVAQIDIATARLANLGFTVAPLAVHPFGTANACVFLADGTYLEPLAVNDPAKYGESANRGDVFTGRDRAFRESCGPEGFSALVARSGDAFVDHERFVAAGLSAGDLFEFSRPVQMPDGSRSEAAFRLAFAASGAAADFFLFGCQRLKALPGDRTELERHANAVTGLFEIVLFSGGDAKAARLIETVFGCKSAMSPGGDMVFATGNARIRLTEKPAVADLDLNTSNRGDGGLRGAGIVFSVTDLAVTAAVLAANGVSSMEAGGRLVVPAAPGQGVAFAFEEI", "soluble on expression in E. coli": "not soluble"},
      {"sequence": "MNSQQDLTMHNRSAAILLRPAAALYGMVMSLRNCLYDQGIFKSWHSPIPVVSVGNITTGGTGKTPLVDWIVKFYEASGIATAIVSRGYGRRTKGVQLVSDGGRLLLGSRDAGDETAMLAARNPRTIVVVAEKRVEGVQFLMHQFADRLPGVIVLDDAFQHRKIARDLDIVVVNAGAPEEIDAMLPAGRLREPLRGLRRAHLIILGKITDDANSATLLQTLRETGKPVIRSKIKPGKLIHVDGSENETNESVKTLAFAGIGAPEGFLHSLKTAGIKIAATKFFRDHEPYTESAIRSIIGEAKRQGLVPVTTEKDWFRIADEPELAEMLRQVGCRYLTITPEFPDGTQELERQLLDVLKRLEHHHHHH", "soluble on expression in E. coli": "not soluble"},
      {"sequence": "MGQTLSEPVTKKESASCANENYLVGSSCMQGWRVDMEDAHTHLLSLPDDPKCAFFAVYDGHGGSKVSQYSGINLHKKVVAQKEFSEGNMKEAIEKGFLELDQQMRVDEETKDDVSGTTAVVVLIKEGDVYCGNAGDSRAVSSVVGEARPLSFDHKPSHETEARRIIAAGGWVEFNRVNGNLALSRALGDFAFKNCDTKPAEEQIVTAFPDVITDKLTPDHEFIVLACDGIWDVMTNQEVVDFVREKLAEKRDPQSICEELLTRCLAPDCQMGGLGCDNMTVVLVGLLHGQSPDTLFTKCARPAVFTGVNNEDGDQNQIQQDISRVINNFDGEQRVNAANQEEEEDDNEPAPANFQV", "soluble on expression in E. coli": "soluble"}
    ]}
  ]
}
